Data from the supplement of paper PMC9170038.

System: K4 kissing-loop RNA reporter
Assay: apparent KD of K4 kissing-loop reporter; higher = weaker reporter binding
Conditions: Eterna round: R107
Protocol: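 RNA-MaP round R107: designed RNA switches with theophylline, tryptophan, arginine or FMN aptamers are transcribed on-chip within common flanks. They are titrated with a labelled K4 kissing-loop RNA reporter in RNA-MaP buffer (100 mM Tris pH 7.5, 80 mM KCl, 4 mM MgCl2), without ligand or with the indicated ligand. Median apparent KD per design.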

[1] = input ligand: theophylline 20 uM
[2] = input ligand: tryptophan 2.4 mM
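Further: bound reporter read as fluorescence of individual clusters on recovered sequencing chips by microscopy, with normalized cluster intensities fitted with a binding model.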

Sequence | apparent KD of K4 kissing-loop reporter (input ligand: FMN 200 uM) [nM] | apparent KD of K4 kissing-loop reporter (input ligand: arginine 13.2 mM) [nM] | apparent KD of K4 kissing-loop reporter (input ligand: none) [nM] | apparent KD of K4 kissing-loop reporter [1] [nM] | apparent KD of K4 kissing-loop reporter [2] [nM]
UGUUUUUACUGAAGGAGCGGCAAUUGAUACGUAGAUAUAGUGAUGUUAUAUAAGAUAGAGAGCCAGGUAGGUCGCAGAGUGUAUC [ExArgB.aB] | 217 | 188 | 207 | 172 | 213
GGAUAGGACAGAGGAUAUCUCUGAGGCAAGAAAACUUGUCUCUAAAGAGAUGACUCAGUGAUGUUGAGAGAAGGCUGUCCUAUCG [FmnBX 9 - #SwitchBubble #StaticStem] | 211 | 143 | 152 | 155 | 148
UUUUUGGAGAAUUAUAGUGAUGUUAUGAAGGAGGAUAUCUGGAGAUGGAGAAGGCCUAGUGGCUCAGGGAUGGAGGGUGGGUGGG [ExFMNA.Y] | 704 | 411 | 487 | 655 | 301
GUCUCAAAAGAGGCAAGCACUAACGAGGACAAGGAUAUCAUCUCAAUGAGAAGGUGUCCUCGUCCUUAGUGAUGUUAAGGAGUGC [Omei KL FMN A SS E v5] | 348 | 226 | 211 | 376 | 356
GUGCGGCUAGUGAUGUUGGUUGUGUGGGAAGGAGCGCAGAUUCAUGCAGGUAGGUCGCCCACACCUCUGAAAGGAGGCUAAUUCA [KL-SSArg-A16] | 453 | 300 | 315 | 368 | 331
GCCGUAGAUUGAAGGAGCGUUCUUACUGAGUACGGCAACCGGAAGUGAUGUUUCCAGGUGGAACAGGUAGGUCGCAAUCUACGGC | 102 | 87.4 | 105 | 88 | 93.9
ACCCAAGCCCAUCGCGCAGUGAUGUUGUCGCGAGGACCGGUACGGCCGCCACUCGAUAGCAGUGGCAACGUCAUCAUAAUCGAUU [theeternabot_exclusion_KL_Trp_A_50] | 340 | 310 | 352 | 299 | 563
UUUUAAAUGUCUGAUACCAGAGAAAAUAUAUGUAGUGAUGUUAUAUACAAAUUGAAUAAGCUCCCUUGGCAGCAGUAUUAAUUUU [AstrosExc-TheB#11] | 493 | 643 | 713 | 662 | 493
AAUGUAUGGCACAUGAGUGAUGUUCAUGUCCGAGGACCGGUACGGCCGCCACUCGGUCCUGGGUUCUUAUUACUAUACAUUAAUG [KL-XTryp-A2 #analogue] | 161 | 133 | 149 | 169 | 289
AGAUCUGUAACAGAUACCAGAGGACGAUGAUCGGAUAGUGAUGUUAUCUAUCAGUCGUCGCUCCCUUGGCAGCUGUUACAGAUCA [Omei KL Theo B SS B v2] | 839 | 450 | 776 | 552 | 662
UGGAGUGCCUGGUCGUCACUAUGCCAACCACGAGGACCGGUACGGCCGCCACUCGUGAGGGAUAUUCAGAAAGUGAUGUUUUUUG [theeternabot_exclusion_KL_Trp_A_1] | 590 | 370 | 529 | 450 | 403
UGGUGCCAUUGGCGGGUAGAUAGUGGUGGCAAGGAUAUGUGAGCGAACAGAAGGUGCAUCAAGUUCAGUGAUGUUGGGCUCGAUU [theeternabot_sameState_KL_FMN_A_20] | 264 | 184 | 275 | 254 | 234
CGUGCCCGGCCGGAUACCAGUGACCCGCUGGGAACCGCGGGCCCAGAGUGAUGUUCGGGACACCCUUGGCAGCCGCCUGGGCGGC [#2 Same State - Theophylline B Attempt #13 (HarryS)] | 987 | 637 | 1080 | 614 | 655
AUUUUUUUGUCAGGAUAUUAGUGUGGGUUUGGUUUGUUAGUGAUGUUGAUAUUUGGUUUAUGUAUUUAAGAAGGGAUUUAGCGGU [frrvemullin] | 563 | 359 | 408 | 492 | 375
AAAAUAACCCAGUGAUGUUGGUCUCCAGAUACCAGCGACGAAAGUCGCCCUUGGCAGCUGUGGACGUACAAAAUAAGUACGUCCU | 661 | 629 | 776 | 485 | 558
UGUAAGCGCGUAGAUACCAGCAAACGAGUGAUGUUCAAAAGAUUAAGGAAAAGAAAGUAAUGCCCUUGGCAGCUAAUCAUAAGCG [whbob_Ex_Theo_B_sa91] | 304 | 316 | 449 | 397 | 247
UGACUGGAUGGAAGGAGCGCUAAACUCCUAGUGAUGUUAGGGACACGAGGCAAAGCCUCGAAGCAGGUAGGUCGCCAUCUAGUCU [FiskerMod 22 - Jieux - Same State - Arginine B] | 184 | 148 | 174 | 182 | 167
